Residue numbers refer to the chain shown, from its start. Names may count otherwise.
B1: AT-N135Q-Pro394: human antithrombin with Proline inserted between 393 and 394 and substitution at 135 by Glutamine (protein, listed as Homo sapiens)
chain: HGSPVDICTAKPRDIPMNPMCIYRSPEKKATEDEGSEQKIPEATNRRVWELSKANSRFATTFYQHLADSKNDNDNIFLSPLSISTAFAMTKLGACNDTLQQLMEVFKFDTISEKTSDQIHFFFAKLNCRLYRKAQKSSKLVSANRLFGDKSLTFNETYQDISELVYGAKLQPLDFKENAEQSRAAINKWVSNKTEGRITDVIPSEAINELTVLVLVNTIYFKGLWKSKFSPENTRKELFYKADGESCSASMMYQEGKFRYRRVAEGTQVLELPFKGDDITMVLILPKPEKSLAKVEKELTPEVLQEWLDELEEMMLVVHMPRFRIEDGFSLKEQLQDMGLVDLFSPEKSKLPGIVAEGRDDLYVSDAFHKAFLEVNEEGSEAAASTAVVIAGRPSLNPNRVTFKANRPFLVFIREVPLNTIIFMGRVANPCVK
B2: AT-Pro394: human antithrombin with insertion of a Proline between positions 393 and 394 (protein, listed as Homo sapiens)
chain: B1 chain with Q135N
B3: AT-N135Q-ΔR393-S394: human antithrombin with deletion of positions 393 and 394 and substitution at 135 by Glutamine (protein, listed as Homo sapiens)
chain: HGSPVDICTAKPRDIPMNPMCIYRSPEKKATEDEGSEQKIPEATNRRVWELSKANSRFATTFYQHLADSKNDNDNIFLSPLSISTAFAMTKLGACNDTLQQLMEVFKFDTISEKTSDQIHFFFAKLNCRLYRKAQKSSKLVSANRLFGDKSLTFNETYQDISELVYGAKLQPLDFKENAEQSRAAINKWVSNKTEGRITDVIPSEAINELTVLVLVNTIYFKGLWKSKFSPENTRKELFYKADGESCSASMMYQEGKFRYRRVAEGTQVLELPFKGDDITMVLILPKPEKSLAKVEKELTPEVLQEWLDELEEMMLVVHMPRFRIEDGFSLKEQLQDMGLVDLFSPEKSKLPGIVAEGRDDLYVSDAFHKAFLEVNEEGSEAAASTAVVIAGLNPNRVTFKANRPFLVFIREVPLNTIIFMGRVANPCVK
B4: AT-N135Q-ΔR393: human antithrombin with deletion of position 393 and substitution at 135 by Glutamine (protein, listed as Homo sapiens)
chain: HGSPVDICTAKPRDIPMNPMCIYRSPEKKATEDEGSEQKIPEATNRRVWELSKANSRFATTFYQHLADSKNDNDNIFLSPLSISTAFAMTKLGACNDTLQQLMEVFKFDTISEKTSDQIHFFFAKLNCRLYRKAQKSSKLVSANRLFGDKSLTFNETYQDISELVYGAKLQPLDFKENAEQSRAAINKWVSNKTEGRITDVIPSEAINELTVLVLVNTIYFKGLWKSKFSPENTRKELFYKADGESCSASMMYQEGKFRYRRVAEGTQVLELPFKGDDITMVLILPKPEKSLAKVEKELTPEVLQEWLDELEEMMLVVHMPRFRIEDGFSLKEQLQDMGLVDLFSPEKSKLPGIVAEGRDDLYVSDAFHKAFLEVNEEGSEAAASTAVVIAGSLNPNRVTFKANRPFLVFIREVPLNTIIFMGRVANPCVK
B5: AT-N135Q-ΔS394: human antithrombin with deletion of position 394 and substitution at 135 by Glutamine (protein, listed as Homo sapiens)
chain: B4 chain with S393R

Experiments:
[1] = molecular target: T1, factor Xa (Homo sapiens, UniProt P00742); assay: Kinetic assay of factor Xa inhibition by antithrombins in a purified system (chromogenic substrate, continuous or discontinuous); type: biochemical; conditions: for factor Xa inhibitory activity: with or without pentasaccharide, compared with plasma / wild type antithrombin; for factor Xa inhibition in continuous method: saturating pentasaccharide concentration; for anticoagulant / anti-factor Xa activity / inhibition rate constant (kon) for factor Xa: discontinuous method
T1 construct: purchased Kordia
T1 sequence (P00742 235-488 limits assumed): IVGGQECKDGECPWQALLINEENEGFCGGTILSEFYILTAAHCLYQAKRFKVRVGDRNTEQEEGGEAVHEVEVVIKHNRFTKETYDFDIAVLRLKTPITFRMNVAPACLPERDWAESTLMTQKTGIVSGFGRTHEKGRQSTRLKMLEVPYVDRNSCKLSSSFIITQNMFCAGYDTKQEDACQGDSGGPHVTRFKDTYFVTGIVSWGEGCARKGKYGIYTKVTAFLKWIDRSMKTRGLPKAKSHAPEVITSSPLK
T1 sequence (P00742 41-179 partner limits assumed): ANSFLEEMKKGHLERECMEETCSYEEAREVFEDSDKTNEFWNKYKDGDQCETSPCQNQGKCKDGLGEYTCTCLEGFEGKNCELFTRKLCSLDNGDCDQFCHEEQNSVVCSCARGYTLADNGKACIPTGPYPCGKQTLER
Method: Briefly, factor Xa is incubated with an excess of tested antithrombins (corresponding to plasma antithrombin, or wild type antithrombin or mutated antithrombins and varying in each assay realized) in the presence or absence of pentasaccharide (Fondaparinux sodique, Arixtra®, GlaxoSmithKline) and the factor Xa residual activity is measured as a function of time. The pentasaccharide is added in excess in the reaction media so that every tested antithrombin is bound to the pentasaccharide. In the absence of pentasaccharide, polybrene is added in order to neutralize any sulfated glycosaminoglycan that may be present in the reaction media. The residual factor Xa activity is measured as the increase in absorbance at 405 nm resulting from cleavage of the chromogenic substrate (S2765 or S2222, Chromogenix) using a microplate reader (Dynatech MR 5000). The analysis of the data is performed using the GraphPad Prism version 3 software. Absorbance recording is continuous or discontinuous according to the expected inhibition rate constant (kon).
The inhibition rate constant (kon) is the second order rate constant given in M^−1·s^−1 which define the velocity of stable complex formation between protease and antithrombin (higher is the kon value, faster will the complex be established).
When the expected kon is lower than 10^4 M^−1·s^−1 the discontinuous method is used. Factor Xa (0.2 to 1 μM, or 0.1 to 1 μM) is incubated with tested antithrombins (0.2 to 10 μM, or 1 to 10 μM) in the presence of pentasaccharide (10 to 100 μM) or polybrene (100 μg/ml) in a final volume of 10 μl for 10 seconds to 5 hours, or 10 seconds to 24 hours. At the end of this incubation period, 190 μl of kinetic buffer containing 200 μM substrate is added and absorbance at 405 nm is recorded.
The kinetic rate constant (k) is estimated by fitting the substrate hydrolysis initial rate curve to equation (1) using non-linear regression with v0 and v∞ being the substrate hydrolysis rate at time to or too respectively. […] (1)
The inhibition rate constant (kon) is calculated from the rate constant (k) using equation (2) where AT is the tested antithrombin concentration. k=AT·kon (2)
When the expected kon is higher than 10^4 M^−1·s^−1′ the continuous method is used. The tested antithrombin (0.01 to 1 μM, or 0.1 to 1 μM) is incubated with the substrate (200 μM) in the presence of pentasaccharide or polybrene in a final volume of 100 μL, or 190 μl, and the reaction is started by addition of 100 μL, or 10 μL, of factor Xa (2 nM or 10 nM). The rate constant (k) is obtained by fitting the substrate hydrolysis curve to equation (3) or (3′) using non-linear regression analysis where A0 is the absorbance at t0, and vi and vs are respectively the initial and final rates of substrate hydrolysis in the absence of tested antithrombin. A405=A0+vi·(1−exp(−k·t))/k. (3) Equation (3′) is also used, particularly in presence of plasma. A405=A0+vs*t+(vi−vs)*(1−exp(−k·t))/k. (3′)
The inhibition rate constant (kon) is calculated from the kinetic constant (k) using equation (4) that takes into account the competitive effect of the substrate, with S being the initial substrate concentration, Km, the Michaelis constant for factor Xa-substrate interaction, AT the tested antithrombin concentration. k=(kon/(1+S/Km))·[AT] (4)
Mutated antithrombins and wild type AT inhibitory activity are measured in the same conditions and compared with plasma AT inhibitory activity.

[2] = tested on: plasma anti FXa activity in mice treated with pentasaccharide; assay: Murine model: mutated antithrombins as antidotes of fondaparinux, plasma anti FXa activity; type: in vivo, mouse; conditions: injection of mutated antithrombin after fondaparinux
Method: The efficiency of the mutated antithrombins AT-R393H(SEQ ID NO: 4), AT-Pro394 (SEQ ID NO: 6), AT-ΔR393-S394 (SEQ ID NO: 18), AT-ΔR393 (SEQ ID NO: 8), AT-ΔS394 (SEQ ID NO: 10), AT-N135Q-R393H(SEQ ID NO: 14), AT-N135Q-Pro394 (SEQ ID NO: 16), AT-N135Q-ΔR393-S394 (SEQ ID NO: 24), AT-N135Q-ΔR393 (SEQ ID NO: 20), AT-N135Q-A5394 (SEQ ID NO: 22) as antidotes is evaluated in a murine model.
The different drugs to be tested (fondaparinux, low molecular weight heparin, full length heparin and the mutated antithrombins) are administrated by intra-venous injection in the caudal vein to avoid the variability encountered when administration is performed subcutaneously. However, Heparin derivatives (fondaparinux, low molecular weight heparin and full length heparin) could also be administrated subcutaneously.
The blood is collected by punction in cave vein into tubes containing 0.105 mol/L trisodium citrate (1:10). Platelet-poor plasma is obtained by centrifugation at 2300 g for 10 minutes at 12° C. and stored at −80° C. until use.
The following elements are determined: • the doses of fondaparinux inducing an overdose in mice, • the mutated antithrombins time course, and in particular the time required to observe a maximal biological effect, • the minimal doses of mutated antithrombins necessary to neutralize fondaparinux.
For each of these experiments, 4 groups of 5 mice each are used: • In the first group mice receive fondaparinux vehicle and then antidote (mutated antithrombin) vehicle. • In the second group, mice receive fondaparinux and then antidote vehicle • In the third group, mice receive fondaparinux vehicle and then antidote • In the last group, mice receive fondaparinux and then antidote
Anti FXa activity measurements is performed as previously described using a Stachrom Heparin® kit on a STA (Stago, France) or a Rotachrom Heparin® kit with procedure adapted for measurement in microplate reader (Dynatech MR 5000). A calibration curve with pentasaccharide is performed, allowing the expression of the results in nmol/ml (or in mg/L) of plasma.
Thus, the antidote (mutated antithrombins) is administered intravenously, 5 min after the intra-venous injection of the fondaparinux, and 5, 15 or 30 min after the subcutaneous injection of the fondaparinux.
The mutated antithrombin time course is studied by measuring the plasma anti-Xa activity 5 min, 10 min, 20 min and 40 min after the antidote administration.
Once the time of action determined, a dose response curve is performed in vivo to determine the dose of antidote necessary to obtain a decrease in Fondaparinux plasma concentration within the therapeutic range around 1.2 nmol/ml (or 2 mg/L), or around 0.7 nmol/ml (or 1.2 mg/L).

[3] = in the presence of pentasaccharide

Molecule | factor Xa inhibitory activity [1] | plasma anti FXa activity in mice treated with pentasaccharide [2] | factor Xa inhibition in continuous method [1] | anticoagulant / anti-factor Xa activity [1, 3] | inhibition rate constant (kon) for factor Xa [1, 3] [M⁻¹ s⁻¹] | kon, times lower than plasma AT [1, 3]
AT-R393H: human antithrombin (SEQ ID NO:2) with substitution of the amino acid at position 393 by Histidine | negligible | significant decrease | – | – | – | –
AT-N135Q-R393H: human antithrombin with substitution at 393 by Histidine and at 135 by Glutamine | negligible | significant decrease | slow factor Xa inhibitors | largely reduced | 4415 | –
B1 | negligible | significant decrease | slow factor Xa inhibitors | almost devoid of anti-factor Xa activity | 33 | at least 7600 times
B2 | negligible | significant decrease | – | – | – | –
B3 | negligible | significant decrease | – | – | – | –
B4 | negligible | significant decrease | – | – | – | –
B5 | negligible | significant decrease | – | – | – | –

Reference: patent publication US8741844B2, “Use of mutated antithrombins for treating or preventing coagulation disorders” (Universite Paris-Sud XI, priority 2007, dated 2014)
